For test [1], the target named is Tau225-240 phospho-peptide (pT231) (human). The test can be described thus: BLI. On the technique in general: In BLI a coated tip is dipped into the sample, and binding shifts an interference pattern.
Test [2] concerns the target Tau217-234 phospho-peptide (pT217/pT220/pT231) (human). Put plainly: BLI.
The target of test [3] is Tau204-222 phospho-peptide (pT217) (human). Put plainly: one point ELISA. (In an ELISA, binding on a coated surface is turned into a signal by an enzyme label.)
Test [4] has as its target Tau204-222 phospho-peptide (pS214) (human). The test can be described thus: one point ELISA.
Test [5] has as its target Tau204-222 phospho-peptide (pS214/pT217) (human). The test can be described thus: one point ELISA.
Test [6] addresses Tau204-222 phospho-peptide (pT212) (human). The test can be described thus: one point ELISA.
For test [7], the target named is Tau204-222 phospho-peptide (pT212/pT217) (human). Put plainly: one point ELISA.
In test [8] the target is Peptide 5 (tPeptide 5) (pT212/pS214/pT217) (human). The test can be described thus: one point ELISA.
For test [9], the target named is Tau204-222 phospho-peptide (pT212/pS214/pT217) (human). The test can be described thus: one point ELISA.
For the next test, the target named is wtTau C2 (human). The test can be described thus: one point ELISA.
For test [10], the target named is Tau204-222 phospho-peptide (pT212/pS214) (human). Put plainly: one point ELISA.
The target of test [11] is Tau191-214 phospho-peptide (pS199) (human). Put plainly: one point ELISA.
Test [12] concerns the target Tau191-214 phospho-peptide (pS199/pS202) (human). The test can be described thus: one point ELISA.
In test [13] the target is Tau191-214 phospho-peptide (pS199/pT205) (human). The test can be described thus: one point ELISA.
In test [14] the target is Tau191-214 phospho-peptide (pS202) (human). The test can be described thus: one point ELISA.
For test [15], the target named is Tau191-214 phospho-peptide (pS199/pS202/pT205) (human). Put plainly: one point ELISA.
For test [16], the target named is Tau191-214 phospho-peptide (pT205) (human). Put plainly: one point ELISA.
The target in test [17] is SCBio-4PEG-Peptide (Tau191-214) pS199-old (human). The test can be described thus: one point ELISA.
Test [18] has as its target Tau191-214 phospho-peptide (pS202/pT205) (human). Put plainly: one point ELISA.
For test [19], the target named is AT8 peptide (amino acids 195-215 of tau) (human). The test can be described thus: BLI (Octet), peptide on streptavidin tip.

pKd: −log10 of the molar value.

5 substances from patent US20240059766A1 can be followed below.

For orientation: pKd means the Kd on a negative log10 scale, so that one unit is a factor of ten. Read a low pKd as a large Kd.

Chain of Tau191-214 phospho-peptide (pS202) (human) (peptide, as listed by the source): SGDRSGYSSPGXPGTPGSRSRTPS
Chain of Tau191-214 phospho-peptide (pT205) (human) (peptide, as listed by the source): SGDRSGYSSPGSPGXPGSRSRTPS
Chain of Tau191-214 phospho-peptide (pS199) (human) (peptide, as listed by the source): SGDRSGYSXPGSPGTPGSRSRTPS
Chain of SCBio-4PEG-Peptide (Tau191-214) pS199-old (human) (peptide, as listed by the source): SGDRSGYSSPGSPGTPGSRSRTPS
Chain of AT8 peptide (amino acids 195-215 of tau) (human) (peptide, as listed by the source): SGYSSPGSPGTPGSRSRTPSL

As for AT180 (antibody), the values for the negative-log Kd (pKd) in [1] and in test [2] were 11.22 and 11.30, respectively.

Take PT3-hIgG1 (antibody): the OD450 was found to be 3.13 OD450 nm in [3]; 3.14 OD450 nm in test [4]; 3.13 OD450 nm in test [5]; 3.16 OD450 nm in test [6]; 3.16 OD450 nm in test [7]; 2.81 OD450 nm in test [8]. In addition, the OD450 in [9] was determined as 3.17 OD450 nm; with wtTau C2 (human), 1.2 OD450 nm; in test [10], 3.14 OD450 nm.

As for “anti-tau antibody AT8 (ThermoFisher, Waltham, MA)”, the OD450 in [11] is 0.056 OD450 nm; in [12], 2.39 OD450 nm; in [13], 0.139 OD450 nm; in test [14], 0.058 OD450 nm; in test [15], 3.07 OD450 nm; in [16], 0.065 OD450 nm. In addition, the results for the OD450 in [17] and in [18] were 0.056 OD450 nm and 2.94 OD450 nm, respectively. This substance had a negative-log Kd (pKd) in [19] of 9.51.

“anti-tau antibody AT100 (ThermoFisher, Waltham, MA)”: the OD450 in test [3] is 0.068 OD450 nm; in test [4], 0.065 OD450 nm; in [5], 0.067 OD450 nm; in test [6], 0.069 OD450 nm; in [7] it was 0.069 OD450 nm; in [9] it was 0.187 OD450 nm. In addition, the OD450 in [10] is 0.071 OD450 nm.

Consider hIgG1 isotype control (antibody), for which the OD450 in [11] worked out at 0.058 OD450 nm; in test [3], 0.083 OD450 nm; in test [4], 0.061 OD450 nm; in test [5] it was 0.059 OD450 nm; in [6], 0.06 OD450 nm; in test [7] it was 0.057 OD450 nm. In addition, the OD450 was found to be 0.062 OD450 nm in test [12]; 0.09 OD450 nm in test [13]; 0.055 OD450 nm in test [14]; 0.245 OD450 nm in test [15]; 0.141 OD450 nm in test [8]; 0.054 OD450 nm in test [16]. In addition, the OD450 in [17] turned out to be 0.06 OD450 nm; in test [9], 0.053 OD450 nm; with wtTau C2 (human) it was 0.124 OD450 nm; in test [10], 0.059 OD450 nm; in test [18], 0.249 OD450 nm.
